Laboratory results from the nanobody polyreactivity screen of Harvey et al. (2022).

Experiment: yeast display, Sf9 membrane polyspecificity reagent, FACS + sequencing; frameworks hold sequencing errors
Summary of the method: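 Polyreactivity labels are assigned by the sorting gate from which each nanobody was recovered. The gates were low and high (top ~1%), set on anti-HA fluorescence for expression and streptavidin fluorescence for reagent binding. Before sorting, galactose-induced (36–48 hours) yeast display cells were stained for 1 hour at 4 °C with 10% biotinylated, detergent-solubilized Sf9 membrane reagent.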

Sequence | polyreactivity (PSR sort gate)
QVQLVESGGGLVQAGGSLRLSCAASGRIFWRYAMGWYRQAPGKERELVAAITSGGNTYYADSVKGRFTISRDNAKNTVYLQMNSLKPEDTAVYYCATVFSVQGWYFGMNYWGQGTQVTVSS | low polyreactivity
QVQLVESGGGLVQAGGSLRLSCAASGSIFGTNTMGWYRQAAGKERVLVAAIRLSDSSTYYADSVKGRFTISRDNAKKTVYLQMNSLKPGDTAVYYCAVDYRAYHYYRYDYWGQGTQVTVSS | low polyreactivity
QVQLVESGGGLVQAGGSLRLSCAASGRTFYPYVMGWYRQAPGKEREFVAAISGTGGTTYYADSVKGRFTISRDNAKTTVYLQMNSLKPEDTAVYYCNRRIPYTSYSYGYWGQGTQVTVSS | high polyreactivity
QVQLVESGGGLVQAGGSLRLSCAASGIILHGYAMGWYRQAAGKEREFVATITVSGSSTYYADSVKGRFTISRDNAKNTVYLQMNSLKPEDTAVYYCAARSWVIVYGLQYDYWGQGTQETVSS | high polyreactivity
QVQLVESGGGLVQAGGSLRLSCAASGSTFTPYAMGWYRQAPGKERELVASITIGGSTYADSVKGRFTISRDNAKNTVYLQMNSLKPEDTAVYSCNADWNWYPFLYSRMDYWGQGTQVTVSS | low polyreactivity
QLQLVESAGGLVQAGGSLRLSCAASASTFGSYAMGWYRQATGKETELDASNTSAGSTNYADSVKGRFTISRDNAKNTVYLQMNSLKPVDTEVYYCNDVRYYSYQYVPEVTHRYGFWGQGTQVTVSS | high polyreactivity
QVQLVESGGGLVQAGGSLRLSCAASGSSFYSNAMGWYRQAPGKERELVAAISSSGGSTYYADSVKGRFTISRDNAKNTVYLQMNSLKPEDTAVYYCAAYSYYPPYDYWGQGTQVTVSS | high polyreactivity
QVQLVESGGGLVQAGGSLRLSCAASGSIFGKYAMGWYRQAPGKERELVAAISDSGSITYYADSVKGRFTISRDNAKNTVYLQMNSLKPEDTAVYYCAAERYLLWGFEENYWGQGTQVTVSS | high polyreactivity
QVQHVESGGGLVQAGGSLRLSCAASAIIFGDYAMGWYRQAPGKETELVAAINLDGTSTYYADSVKGRFTISRDIAKHSVYLQINSLKTEDTAGFYCAAVPDKYCCRVRRYLFEHNYWGQGTQVTVSS | low polyreactivity
QVQLVESGGGLDQAGGSLRLSCAASGSIFGYAMGWYRQAPGKERELVAAIRWGGGSTYYADSVKGRFTISRDNAKKTVYLQMNSLKPEDTAVYYCAARYYRPGVLANYYWGQGTQVTVSS | high polyreactivity
QVQLVESGGGLVQAGGSLRLSCAASGFIFFYAMGWYRQAPGKERELVAAISSRGGSTYYADSVKGRFTISRDNAKNTVYLQMNSLKPEDTAVYYCAALLWSAESDYWGQGTQVTVSS | high polyreactivity
QVQLVESSGGLVQAGGSLRLTCAASGSTFTIYAIGWYRQAPRKERELVAVISSSGGSTYYADSVMGRFTISRDNAKNTVYLQMNSLKPEDTAVYYCAADTRYVGGYLTLYYWGQGTQVTVSS | low polyreactivity
QVQLVESGGGLVQAGGSLRISCASSGRIFAFYVMGWYRQAPGKERELVAAISIRGTRTYYADSVKGRFTISRDNAKNTVYLQMNSLKPVDTAVYYCNAVTFPHYYDYWGQGPQVTVSS | high polyreactivity
QVQLVESGGGLVQAGGSLRLSCAASGRTFTYYAMGWYIQAPGKERELVAAITSGGRTYYADSVKGRFTISRDNAKNHVYLQMNSLKPEDTAVYYCAARRIRDYYRSYDYWGQGTQVTVSS | high polyreactivity
QVQLVESGGCLVQAGGSLRLSCAASGRTFDINDMGWYRQAPGKEREFVAAIDRSGGNTYYADSVKGRFIISRDNAKNTVYLQMNSLKPEDTAVYYCAADSPYVVAWPYVWYFTFDYWGQGTQVTVTS | low polyreactivity
QVQLVESGGGLVQAGGSLRLSCAASGSIFGPYAMGWYRQAPGKERELVAAITWTGGRTYYADSVKGRFTISRDNAKNTVYLQMNSLKPEDNAVYYCAADYSPSTWYLYYTLYYYWGQGTQVTVSS | low polyreactivity
QVQLVESGGALVQAGGSLRLRCAASGRIFRLYAMGWYRQAPGKERELVAAISSSGADTYYADSVKGRFTISSDNAKNTVDLQMNSLKPEETAVYYCAARTWHRYDYFGQGTQVTVSS | high polyreactivity
QVQLVESGGGLVQAGGSLRLSCAASGRIFVYYAMGWYRQAPGKERELVATITSSDITNDADSVKGRFTISCDNAKNTVYLQMNSLKPEDTAVYYCARDYYVYSSGHVPLDYWGQGTQVTVSS | low polyreactivity
QVQLVESGGGLVQAGGSLRLSCAASGTTFCSYAMGRYRQAPGKEREFVAAISSSDDSTYYADSVKGRFTISRDYAKNTVYLQMNSLKPEDTAVYYCAAAQRVNHVWYDYWGQGTQVTVSS | low polyreactivity
QVQLVESGGGLVQAGGSLRLSCAASGSTFVSYAMGWYRQAPGKERDFVAAITWSGGSTYYADSVKGRFTISRDNAKNTVYLQMNSLKPEDTAVYYCNARTGRSPTGFRYWGQGTQVTVSS | high polyreactivity
QVQLVESGGGLVKAGGSLRLSCAASGSIFDFYVMGWYRQAPGKERELVAAISSGGSTYYADSVKGRFTISRDNAKNTVYIKMNSLKPEDTAVYYCAAYPEYVSGAWYDYWGQGTQVTVSS | low polyreactivity
QVKHVESVGGLVQAGGSLRLSCAASGITFVRNAMGWSRQAPGKETDLVAAISSGGGSTYYADSVKGRFTISRDNAKNTVYLQMNSLKPEDTAVYYCNAQGFIYYWLRYDYWGQGTQVTVSS | high polyreactivity

Sequence | polyreactivity (PSR sort gate)
QVQLVESGGGLVQAGGSLRLSCGASGFTFYGYAMGWYRHGPGKESELVAAITGSGARTNYADSVKGRFTISRDKAKNTVYLQMNSLKPEDTAVYYCNKVGVTRDGSTYRVREDDYWGQGTQVTVSS | high polyreactivity
QVQLVESGGGLVQAGGSLRLSCAASGFTIFSYAMGWYRQAPGKERELVAAISRRGGSTYYADSVKGRFTISRDNAKNTVYLQMNSLKPEDTAVYYCAAGPRWHTNGWAYDYWGQGTQVTVSS | high polyreactivity
QVQLVESGGGLVQAGGSLRLSCAAYSYVMGWNRQAPGKERELVAAISQSGGSTYYADSVKGRFTISRDNPKNTVYLQMNSLKPEDTAVYYCAARREPYQYNQYYSWGQGTKVTVSS | high polyreactivity
QVQLVESGGGLVQAGGSLRLSCAASGRTFYIYAMGWYRQAPGKERELVAAITYGGGRTFYADSVKGRFTISRDYAKTTVYLQMISLKPEDTAVYYCAATDRGKRSTYDYWGQGTQVTVSS | high polyreactivity
QVQLVESVGGLVQAGGSLLLSCAAYGDISRYNTMGWYRQAPGKERELVPAITWSGGSTYADSVKGRFTISRDNAKNTVYLQMNSLKPEDTAVYYCAAGAYIWDNYSYRWYDYLGQGTQVTVSS | high polyreactivity
QVQLVESGGGLVQAGGSLRLSCAASGRIFKVNTMGWYRQAPGKERELVASIRGGGSTNYADSVKGRFTISRDNAKNTVFLQMNSLKPEDTAVYYCAVGPNSVGNRSYGFDYWGQGTQVTVSS | low polyreactivity
QVQLVESGGGLVQAGGSLRLSCAASGRTFQDNAMGWSRQEPGKERELVAAISWRGGSTNYADSVKGRFTISRDNAKNTVFLQLNSLKPEDTAVYYCNRDPRKYGKLDYWGQGTQVTVSS | low polyreactivity
QGQLGESGGGLVQAGGSLRLSCAASGSNFSSNAMGWYRQAPWKERELVAAISSGGSTNYADSVKGRFTISRDNAKNTVYLQMNSLKPEDTAVYYCAADTSTGVYTPYAFEFDWGQGTQVTVSS | low polyreactivity
QVQLVESGGGIVQAGGSLRLICAASVITLVLYAMVWYRQAPGKERELLAAISSSGGSTYYADSVKGRFTISRDNAKNTVYLQMTSLKPEDTAVYYCNVTPDWNARRPFDYWGQGTQVTVSS | high polyreactivity
QVQLVESGGGLVQAGGSLRLSCAASGRTFYPNAMGWYRQAPGKEREFVARISDSGGYTYYADSVKGRFTISRDNAKNTVYLQMNSLKPEDTAVYYCAADYGDPRVNEYDYWGQGTQVTVSS | low polyreactivity
QVQLVESGGGLVQAGGSLRLSCAASGRIYTYYAMGWYRQAPGKERELVAAISSGGSTYYADSVKGRFTISRDNAKNTVYLQMNSLKPEDTAVYYCNRVRRGVWRQDDYWGQGTQVTVSS | high polyreactivity
QVQLVESGGGLVQAGGSLRLSCAASGRIFGWYAMGWYRQAPGKERELVATIRKSGGRTYYADSVKGRFTLSRDNAKNTVYFQMNSLKQEDTAVYYCAAENTAAGQGLWGEDYWGQGTQVTVSS | high polyreactivity
QVQLVESVGGLVQAGGRLRLSCAASGITFYSYTMGWYRQAPGKERELVAAISDNGGRTFYADSVKGRFTISRDNAKNTVYLQMNSLKPEDTAVYYCAASRRRAVDYWGQGTQVTVSS | low polyreactivity
QVPLVETGGGLVQAGGSLRLSCAASGRTFNVYAMGWYRQAPGKERELVASITWDDGTTYNADSVKGRFTNSRDNAKNTVYLQMNSLKPEVTAVYYCAADGIYRGAWSTVYESPGYDYWGQGTQVTVSS | low polyreactivity
QVQLVESGGGLVQAGGSLRLSCAASGRIFWYNAMGWYRQAPGKERELVAGITRSGGRTYYADSVKGRFTISRDNAKNTVYLQMNSLKPEDTAVYYCAAAPYARRDYEYWGQGTQVTVSS | high polyreactivity
QVHHEESGGGLFQAGGRLRLSCAASGYIFYDYSMGWYRQAPGKERELVAAISSGGSTNYADSVKGRFTISRDNAKNTVYLQMNSLIPEDTAVYYCASDDRSYATWKRDYDYWGQGTHVTVSS | low polyreactivity
QVQLQESGGGLVQAGGSLLSCAASGTISYYREMGWSRQSPGKQRELVAGIGVGTITYYADSVKGRFTISRDNAKKTVFLQMNSLNPEDTAVYYCAAHIDGNDSHAYWGQGTQVTVSS | low polyreactivity
QVQLVESGGGLVQAGGSLRLSCAASGSIVRYYAMGWYSQAPGKERELVAAISYRGGTTYYADSVKGRFTISRDNAKNTVYLQMNSLKPEDTAVYYCAAGYKAAGWTQYGYWGQGTPVTVSS | high polyreactivity
QVQLVESGGGLVQAGGSLRLSCAASGRTFYPYAMGWYRQEPGKVRELVARISSGGNTKYADSVKGRFTISRDNAKNTVYLQMNSLKPEDTAVYYCNAAHYDYVAWKRFNYWGQGTQVTVSS | high polyreactivity
QVQLVESGGGLVQAGGSLRLSCAASGRILDKYAMGWYRQAPGKERELVARIRFSGGDTYADSVKGRFTISRDNAKNTVYLQMNSLKPEDTAVYYCNKDRRNRWYAFDYWGQGTQVTVSS | low polyreactivity
QVQLVESGGGLVQAGGSLRLSCAASGFTFGSYAMGWYRQAPGKERELVAAISRGGTTYYADSVKGRFTVSRDNAKNTVYLQMNSLKPEDTAVYYCATALIVRGPSRYEYWGQGTQVTVSS | high polyreactivity
